From patent publication US20250154517A1

Biological target: NpuDnaE(C)_Hyg^R (90-341) (Nostoc punctiforme; Escherichia coli)
Test: cell-based or functional assay

Hyg^R(1-89)-NpuDnaE(N) was tested, and the rooting of co-transformed poplar shoots on root induction medium supplied with Hygromycin was 80%.
